According to PMC5057313:

Biological target: Arabidopsis ferredoxin : thioredoxin reductase catalytic subunit (AtFTRc), prey in pGADT7 (Arabidopsis thaliana) (UniProt Q9SJ89)
Sequence of UniProt Q9SJ89 (Q9SJ89 whole entry): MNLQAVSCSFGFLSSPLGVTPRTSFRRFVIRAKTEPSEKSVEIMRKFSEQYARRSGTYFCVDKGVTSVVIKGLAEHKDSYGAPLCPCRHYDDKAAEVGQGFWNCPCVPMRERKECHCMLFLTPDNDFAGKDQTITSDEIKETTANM

Substance “MjTTL5 (transthyretin-like protein 5 of Meloidogyne javanica), bait in pGBKT7 (natural protein)” has an H2O2 consumption of wild-type Arabidopsis protein with MjTTL5 against the MjTTL5-free treatment (only 1.8-fold in the AtFTRc mutants; Fig. S16c) of 2.5 fold.
